Assay results taken from the supplement of paper PMC11246515.
± gives the standard deviation of the averaged measurements.

Test: total protein half-life in vivo (active degradation + dilution); higher = more stable protein
[1] = E. coli NCM3722 delta-clpP delta-lon delta-hslV, growth: N-lim chemostat, doubling time 6 h
[2] = E. coli NCM3722 delta-clpP, growth: N-lim chemostat, doubling time 6 h
[3] = E. coli NCM3722 delta-hslV, growth: N-lim chemostat, doubling time 6 h
[4] = E. coli NCM3722 delta-lon, growth: N-lim chemostat, doubling time 6 h
[5] = E. coli NCM3722 delta-smpB, growth: N-lim chemostat, doubling time 6 h
[6] = wild type E. coli NCM3722, growth: C-lim chemostat, doubling time 3 h
[7] = wild type E. coli NCM3722, growth: C-lim chemostat, doubling time 6 h
[8] = wild type E. coli NCM3722, growth: C-lim chemostat, doubling time 12 h
[9] = wild type E. coli NCM3722, growth: N-lim chemostat, doubling time 6 h
[10] = wild type E. coli NCM3722, growth: N-lim chemostat, doubling time 12 h
[11] = wild type E. coli NCM3722, growth: P-lim chemostat, doubling time 6 h
[12] = wild type E. coli NCM3722, growth: P-lim chemostat, doubling time 12 h

| Sequence | total protein half-life in vivo [1] [h] | total protein half-life in vivo [2] [h] | total protein half-life in vivo [3] [h] | total protein half-life in vivo [4] [h] | total protein half-life in vivo [5] [h] | total protein half-life in vivo [6] [h] | total protein half-life in vivo [7] [h] | total protein half-life in vivo [8] [h] | total protein half-life in vivo [9] [h] | total protein half-life in vivo [10] [h] | total protein half-life in vivo [11] [h] | total protein half-life in vivo [12] [h] |
| --- | --- | --- | --- | --- | --- | --- | --- | --- | --- | --- | --- | --- |
| MSIEIANIKKSFGRTQVLNDISLDIPSGQMVALLGPSGSGKTTLLRIIAGLEHQTSGHIRFHGTDVSRLHARDRKVGFVFQHYALFRHMTVFDNIAFGLTVLPRRERPNAAAIKAKVTKLLEMVQLAHLADRYPAQLSGGQKQRVALARALAVEPQILLLDEPFGALDAQVRKELRRWLRQLHEELKFTSVFVTHDQEEATEVADRVVVMSQGNIEQADAPDQVWREPATRFVLEFMGEVNRLQGTIRGGQFHVGAHRWPLGYTPAYQGPVDLFLRPWEVDISRRTSLDSPLPVQVLEASPKGHYTQLVVQPLGWYNEPLTVVMHGDDAPQRGERLFVGLQHARLYNGDERIETRDEELALAQSA | 6.63 ± 1.7 | 5.04 ± 1.5 | 2.09 ± 0.0062 | 2.01 ± 0.088 | 2.01 ± 0.032 | 2.4 ± 1.4 | 3.58 ± 2.8 | 2.68 ± 0.037 | 2.08 ± 0.11 | 2.85 ± 0.09 | 2.65 ± 0.42 | 4.77 ± 0.37 |
| MSIKTSNTDFKTRIRQQIEDPIMRKAVANAQQRIGANRQKMVDELGHWEEWRDRAAQIRDHVLSNLDAYLYQLSEKVTQNGGHVYFARTKEDATRYILQVAQRKNARKVVKSKSMVTEEIGVNHVLQDAGIQVIETDLGEYILQLDQDPPSHVVVPAIHKDRHQIRRVLHERLGYEGPETPEAMTLFIRQKIREDFLSAEIGITGCNFAVAETGSVCLVTNEGNARMCTTLPKTHIAVMGMERIAPTFAEVDVLITMLARSAVGARLTGYNTWLTGPREAGHVDGPEEFHLVIVDNGRSEVLASEFRDVLRCIRCGACMNTCPAYRHIGGHGYGSIYPGPIGAVISPLLGGYKDFKDLPYACSLCTACDNVCPVRIPLSKLILRHRRVMAEKGITAKAEQRAIKMFAYANSHPGLWKVGMMAGAHAASWFINGGKTPLKFGAISDWMEARDLPEADGESFRSWFKKHQAQEKKNG | 5.21 ± 0.71 | – | 3.96 ± 3.1 | – | 1.76 ± 0.072 | 1.83 ± 0.084 | 3.47 ± 0.48 | 4.06 ± 0.2 | 1.72 | – | 1.89 | 3.14 ± 0.62 |
| MSILYEERLDGALPDVDRTSVLMALREHVPGLEILHTDEEIIPYECDGLSAYRTRPLLVVLPKQMEQVTAILAVCHRLRVPVVTRGAGTGLSGGALPLEKGVLLVMARFKEILDINPVGRRARVQPGVRNLAISQAVAPHNLYYAPDPSSQIACSIGGNVAENAGGVHCLKYGLTVHNLLKIEVQTLDGEALTLGSDALDSPGFDLLALFTGSEGMLGVTTEVTVKLLPKPPVARVLLASFDSVEKAGLAVGDIIANGIIPGGLEMMDNLSIRAAEDFIHAGYPVDAEAILLCELDGVESDVQEDCERVNDILLKAGATDVRLAQDEAERVRFWAGRKNAFPAVGRISPDYYCMDGTIPRRALPGVLEGIARLSQQYDLRVANVFHAGDGNMHPLILFDANEPGEFARAEELGGKILELCVEVGGSISGEHGIGREKINQMCAQFNSDEITTFHAVKAAFDPDGLLNPGKNIPTLHRCAEFGAMHVHHGHLPFPELERF [P0AEP9] | – | – | – | – | – | 1.69 ± 0.022 | 3.62 ± 0.18 | 5.4 ± 0.53 | – | – | 2.38 ± 0.24 | 5.7 ± 3.1 |
| MSIQNEMPGYNEMNQYLNQQGTGLTPAEMHGLISGMICGGNDDSSWLPLLHDLTNEGMAFGHELAQALRKMHSATSDALQDDGFLFQLYLPDGDDVSVFDRADALAGWVNHFLLGLGVTQPKLDKVTGETGEAIDDLRNIAQLGYDEDEDQEELEMSLEEIIEYVRVAALLCHDTFTHPQPTAPEVQKPTLH [P0A8C4] | > 8 | 4.56 ± 0.28 | 3.63 ± 0.19 | 3.96 ± 0.8 | 3.76 ± 0.7 | 2.648 ± 0.026 | 5.18 ± 0.36 | 8.97 ± 0.18 | 3.86 ± 0.19 | 5.64 ± 1 | 5.02 ± 1.2 | 9.3 |
| MSIRFARKADCAAIAEIYNHAVLYTAAIWNDQTVDADNRIAWFEARTLAGYPVLVSEENGVVTGYASFGDWRSFDGFRHTVEHSVYVHPDHQGKGLGRKLLSRLIDEARDCGKHVMVAGIESQNQASLHLHQSLGFVVTAQMPQVGTKFGRWLDLTFMQLQLDERTEPDAIG | 5.23 ± 0.39 | 4.6 ± 0.25 | 4.9 ± 0.08 | 5.17 ± 0.18 | 4.66 ± 0.33 | 2.77 ± 0.072 | 5.77 ± 0.34 | 10.14 ± 0.042 | 4.93 ± 0.44 | 9.49 | 5.912 ± 0.025 | 12 ± 0.29 |
| MSITLSDSAAARVNTFLANRGKGFGLRLGVRTSGCSGMAYVLEFVDEPTPEDIVFEDKGVKVVVDGKSLQFLDGTQLDFVKEGLNEGFKFTNPNVKDECGCGESFHV [P0AAC8] | 3.72 ± 0.52 | 2.47 ± 1.5 | 0.964 ± 0.11 | 2.06 ± 0.1 | 0.889 ± 0.077 | 1.2 ± 0.086 | 1.62 ± 0.07 | 2.08 ± 0.36 | 1.14 ± 0.11 | 1.26 ± 0.022 | 1.36 ± 0.36 | 2.42 ± 0.75 |
